Laboratory results: patent US9540654B2, “Synthetic brassica-derived chloroplast transit peptides” (Dow AgroSciences LLC, priority 2012, dated 2017)

B1: TraP8: chloroplast transit peptide (SEQ ID NO:30) linked with dgt-28 (protein)
chain: MAQSSRICHGVQNPCVIISNLSKSNQNKSPFSVSLKTHQQQRRAYQISSWGLKKSNNGSVIRPVKA
modifications: Chloroplast Transit Peptide
B2: TraP23: chloroplast transit peptide (SEQ ID NO:41) linked with dgt-28 or dgt-31 (protein)
chain: MAQINKSANGVRNASLISNFSNTRQAKSPFSLSCGTRLKNSSRGLKKVAVRLIGSRVKVSAS
modifications: Chloroplast Transit Peptide
B3: TraP5: chloroplast transit peptide (SEQ ID NO:29) linked with dgt-28 (protein)
chain: MQLLNQRQALRLGRSSASKNQQVAPLASRPASSLSVSASSVAPAPACSAPAGAGRRAVVVRA
modifications: Chloroplast Transit Peptide
B4: TraP13: chimeric chloroplast transit peptide SEQ ID NO:8, N-terminus from Arabidopsis thaliana, C-terminus from Brassica napus EPSPS (protein)
chain: MAQVSRICNGVQNPSLISNLSKSSQRKSPLSVSLKTQQPRASSWGLKKSGTMLNGSVIRPVKVTASVS
modifications: TraP13 chloroplast transit peptide

Key:
[1] = system: Zea mays B104; assay: Post-emergence glyphosate tolerance of dgt-28 T0 corn (greenhouse); format: in vivo; details: for protection to glyphosate: T0 corn, dgt-28 linked to the transit peptide
Procedure: Zea mays dgt-28 transformation events (T0) were allowed to acclimate in the greenhouse and were grown until plants had transitioned from tissue culture to greenhouse growing conditions (i.e., 2-4 new, normal looking leaves had emerged from the whorl). Plants were grown at 27° C. under 16 hour light:8 hour dark conditions in the greenhouse. The plants were then treated with commercial formulations of DURANGO DMA™ (containing the herbicide glyphosate) with the addition of 2% w/v ammonium-sulfate. Herbicide applications were made with a track sprayer at a spray volume of 187 L/ha, 50-cm spray height. T0 plants were sprayed with a range of glyphosate from 280-4480 g ae/ha glyphosate, which is capable of significant injury to untransformed corn lines. A lethal dose is defined as the rate that causes >95% injury to the B104 inbred.
T0 events of dgt-28 linked with TraP4, TraP5, TraP8 and TraP23 were generated by Agrobacterium transformation and were allowed to acclimate under controlled growth chamber conditions until 2-4 new, normal looking leaves had emerged from the whorl. Plants were assigned individual identification numbers and sampled for copy number analyses of both dgt-28 and aad-1. Based on copy number analyses, plants were selected for protein expression analyses. Plants were transplanted into larger pots with new growing media and grown at 27° C. under 16 hour light:8 hour dark conditions in the greenhouse. Remaining plants that were not sampled for protein expression were then treated with commercial formulations of DURANGO DMA™ (glyphosate) with the addition of 2% w/v ammonium-sulfate. Treatments were distributed so that each grouping of plants contained T0 events of varying copy number. Herbicide applications were made with a track sprayer at a spray volume of 187 L/ha, 50-cm spray height. T0 plants were sprayed with a range of glyphosate from 280-4480 g ae/ha glyphosate capable of significant injury to untransformed corn lines. A lethal dose is defined as the rate that causes >95% injury to the B104 inbred. B104 was the genetic background of the transformants.

[2] = system: tobacco (cv. Petit Havana); assay: Postemergence glyphosate tolerance of dgt-28 tobacco (T1, T2); format: in vivo; details: T1 tobacco, 2240 g ae/ha glyphosate, 14 DAT
Excerpt: T1 resistant plants from each event used in the progeny testing were given unique identifiers and sampled for zygosity analyses of the dgt-28 gene. Zygosity data were used to assign 2 hemizygous and 2 homozygous replicates to each rate of glyphosate applied allowing for a total of 4 replicates per treatment. These plants were compared against wildtype Petite havana tobacco. All plants were sprayed with a track sprayer set at 187 L/ha. The plants were sprayed from a range of 560-4480 g ae/ha DURANGO DMA™. All applications were formulated in water with the addition of 2% w/v ammonium sulfate (AMS). Plants were evaluated at 7 and 14 days after treatment. Plants were assigned an injury rating with respect to overall visual stunting, chlorosis, and necrosis. The T1 generation is segregating, so some variable response is expected due to difference in zygosity.
Rates of DURANGO DMA™ ranging from 420-3360 g ae/ha glyphosate were applied to 2-3 leaf tobacco as previously described.

[3] = system: chloroplasts of the tobacco leaf tissue; assay: Tobacco transient assay, confocal microscopy of TraP-YFP; format: cell-based, Nicotiana benthamiana; details: Agrobacterium-infiltrated tobacco leaves
Excerpt: The Trap12 and TraP13 chimeric chloroplast transit peptide sequences were initially tested via a transient in planta assay. Polynucleotide sequences which encode the Trap12 (SEQ ID NO:5) and TraP13 (SEQ ID NO:7) chimeric chloroplast transit peptide sequences were synthesized. A linker sequence (SEQ ID NO:10) was incorporated between the TraP sequence and the yfp coding sequence. The resulting constructs contained two plant transcription units (PTU). The first PTU was comprised of the Arabidopsis thaliana Ubiquitin 10 promoter (AtUbi10 promoter; Callis, et al., (1990) J. Biol. Chem., 265: 12486-12493), Trap yellow fluorescent protein fusion gene (TraP-YFP; US Patent App. 2007/0298412), and Agrobacterium tumefaciens ORF 23 3′ untranslated region (AtuORF23 3′UTR; U.S. Pat. No. 5,428,147). […]
Agrobacterium-infiltrated tobacco leaves were severed from the plant, and placed into a petri-dish with water to prevent dehydration. The infiltrated tobacco leaves were observed under blue light excitation with long-pass filter glasses held in place using a Dark Reader Hand Lamp™ (Clare Chemical Research Co.; Dolores, Colo.) to identify undamaged areas of the leaf that were successfully expressing the YFP reporter proteins. […]

Molecule	glyphosate concentration controlling non-transformed plants ([1]; non-transformed corn plants) [g ae/ha]	% Injury Ave [2] [%]	protection to glyphosate [1]	localization of YFP fluorescence signal (microscopy imaging) [3]
O=C(O)CNCP(=O)(O)O [glyphosate, reference compound]	≥ 280			
B1		9.3	robust protection	
B2		9.5	robust protection	
B3			robust protection	
B4				accumulated within the chloroplasts
